Here are results for one substance from article PMC5841360.

The experiment concerns the target mycGluA2 (recombinant) (UniProt P19491). Nature of the experiment: co-IP with flag antibody, myc-GluA2 blot. Particulars: reference: wild type; sites Y421,Y466,Y482.

Turning to “flag-cortactin (recombinant) (from UniProt Q60598) Y421F/Y466F/Y482F (TYM)”, the “binding against the reference” value was “stronger”.
